Patent US20060177918

Each substance was assayed on Myelin Basic Protein (Upstate USA, Inc. cat. no: 13-104).

Substance	increase in fluorescence over time (real-time kinase assay)
PKCβII (Upstate USA, Inc.)	greater than 4 fold increase in fluorescence over time
MAP kinase1/Erk1 (Upstate USA, Inc.)	greater than 4 fold increase in fluorescence over time
MAP kinase2/Erk2 (Upstate USA, Inc.)	greater than 4 fold increase in fluorescence over time
